According to PMC11156922, “PDZ2-conjugated-PLGA nanoparticles are tiny heroes in the battle against SARS-CoV-2” (Scientific Reports, 2024):
No end group written: not given here. *: point of attachment. Biotin = O=C1N[C@H]2[C@H](CS[C@H]2CCCCC(=O)*)N1

Key:
[1] = molecular target: Envelope protein (SARS-CoV-2) (UniProt P0DTC4); conditions: cited from earlier work
[2] = molecular target: T1, C-terminal portion of the SARS-CoV-2 Envelope protein, N-terminal biotinylated peptide (SARS-CoV-2); assay: SPR; Biacore X100; biotinylated E peptide immobilised on streptavidin SA chip (target 1000 RU); PDZ2-f-NPs as analyte, 0.0625-30 uM in equivalents of protein; 25 C; HBS-EP (10 mM Hepes pH 7.4, 0.15 M NaCl, 3 mM EDTA, 0.05% P20); steady-state affinity model / Scatchard plot of maximum amplitudes; conditions: both partners purified
T1 construct: also called SARS-CoV-2 E-protein; E-tetradecapeptide
T1 peptide: Biotin-VKNLNSSRVPDLLV

Q: With ZO1 PDZ2 (from UniProt Q07157) as the molecule, how does the Kd [1] read?
A: 2100 nM

B1: PDZ2-ZO1 functionalized PLGA-PEG-Bis-sulfone nanoparticles (PDZ2 domain of human ZO-1, His-tagged, conjugated to the nanoparticle surface) (domain or fragment)
chain: KVTLVKSRKNEEYGLRLASHIFVKEISQDSLAARDGNIQEGDVVLKINGTVTENMSLTDAKTLIERSKGKLKMVVQRDE
modifications: His-tag chemically linked to the bis-sulfone (PEG-mono-sulfone) moiety of PLGA-PEG nanoparticles
Q: With B1 as the molecule, how does the Kd [2] read?
A: 970 ± 310 nM
